Results as given in the supplement of paper PMC10567573.

B1: WDR88 (parent)
chain: LLTITKAHSNAISNCCFTFSGHFL
B2: ADAMTSL2 (parent)
chain: KKPPEESTCFERPCFKWYTSPWSE

Variants of: B1
Experiment: protein stability index of a GFP-peptide fusion (GPS, HEK-293T) (PSI 1-6); higher = more stable
Settings: c terminus: a fixed tail appended
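Further: lentivirally expressed fusions sorted by FACS into six bins by GFP to DsRed ratio, PSI derived from sequencing read proportions per bin multiplied by bin number.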

Protein stability index, by site and new letter:
L24: W 1.58, Y 3.97, M 2.98, T 2.47, V 1.91, P 2.46, S 1.09, R 2.28, Q 2.64, N 3.3

Variants of: B2
Experiment: as above
Settings: c terminus: a fixed tail appended

Protein stability index: each site, then its substitutions
K1: R 2.88, C 1.89, G 2.34, E 3.08, S 2.37, P 2.24, V 2.29, F 2.59, M 2.48, N 3.12, W 1.75, Y 1.83, I 1.71, L 2.35, H 2.33, Q 2.58, T 2.52, A 2.38, D 2.67
Y18: D 3.48, A 2.87, C 2.33
S7: I 2.28, Q 2.58, W 1.66, K 2.21, C 2.66, H 2.51, G 2.8, V 2.42, F 2.11, P 2.21, A 2.31, R 2.19, D 2.4, N 2.24, E 2.47, T 2.39, M 2.08, Y 2.64, L 1.39
E11: F 2.19, Q 2.27, W 1.64, A 2.59, L 1.88, S 2.82, P 2.46, Y 2.19, N 2.98, C 1.49, R 1.75, D 2.38, V 2.06, T 2.05, H 2.27, I 1.9, G 1.87, M 1.98, K 2.11
F10: V 2.86, L 2.81, C 2.14, Y 2.06, S 3.46, E 2.9, Q 2.54, I 2.81, D 2.89, G 2.71, N 2.45, W 2.09, H 2.99, K 3.55, T 3.19, P 3.19, A 2.51, M 2.83
E6: Q 2.06, T 1.84, L 2.07, N 2.08, G 2.57, F 1.9, R 2.05, S 1.82, H 2.06, A 1.91, P 2.05, M 1.9, Y 1.97, C 2.44, K 2.55, W 1.87, V 2.65, D 2.8, I 1.87
F15: E 3.25, R 2, P 2.31, G 2.25, Q 2.63, Y 2.77, A 2.75, T 2.89, M 2.06, H 2.6, L 1.61, V 2.87, D 3.26, W 2.25, I 2.79, C 2.93, S 2.6, N 2.63, K 2.64
P3: D 2.77, V 2.16, I 1.93, A 2.83, H 1.84, C 2.08, M 2.29, Q 2.67, Y 1.88, L 2.26, N 2.94, F 2, S 2.29, K 2.18, T 2.21, R 2.46, E 3.04, W 2.6, G 2.34
K2: L 2.73, S 2.15, D 3.01, W 2.39, F 2.13, Y 2.36, R 2.61, Q 2.29, C 2.75, A 3.16, N 2.94, P 2.27, G 2.73, I 1.78, M 2.72, H 1.96, V 2.04, E 2.79, T 2.66
E5: C 2.32, G 2.2, P 1.82, F 1.88, T 1.67, Q 2, S 2.3, L 2.33, R 2.02, V 2.48, Y 2.01, D 2.08, M 1.47, N 2.29, I 2.16, K 1.45, A 1.92, W 2.27, H 2.09
T8: A 2.75, R 2.14, I 2.32, G 2.37, Y 1.68, S 2.77, Q 2.79, D 2.61, N 2.56, H 2.29, L 3.01, M 2.45, W 1.7, K 2.89, P 2.59, C 2.17, E 2.69, V 2.28, F 1.74
P13: V 1.96, D 2.39, L 2.09, Q 2.1, Y 1.87, A 2.23, T 2.16, M 2.02, R 1.79, H 2.21, N 2.32, C 1.84, I 2.02, G 2.27, K 2.58, S 2.31, F 2.18, E 2.49
K16: N 2.63, E 3.35, G 1.67, Y 1.72, P 2.13, L 2.51, S 2.49, M 2.43, F 1.9, W 1.86, T 2.22, D 3.04, Q 2.8, C 2.07, R 2.27, A 2.62, I 1.77, H 4.02, V 1.94
R12: D 3, I 2.03, Y 2.84, H 2.63, C 1.69, S 2.79, V 2.29, E 2.95, L 2.04, K 2.5, F 1.71, N 2.55, W 2.24, P 2.77, Q 2.3, A 2.65, T 2.09, G 2.42, M 2.16
W17: V 2.52, H 2.57, N 3.42, G 3.35, K 3.53, L 2.37, P 3.5, Q 2.85, T 2.9, Y 2.86, E 3.19, M 2.9, S 3.33, F 2.88, A 3.79, R 2.96, I 2.46, C 2.56, D 3.6
P4: C 1.95, T 3, R 2.49, G 3.23, A 2.93, F 1.89, N 2.19, E 2.4, H 1.94, Y 2.48, D 2.69, K 2.49, L 2.04, W 1.75, M 2.29, S 2.21, V 2.77, Q 2.72, I 2.26
C14: T 2.42, N 2.98, S 2.23, P 3.09, H 2.23, A 2.94, R 3.7, Y 2.02, D 3.26, I 2.23, E 2.89, G 3.12, W 1.9, F 2.39, K 2.69, Q 2.68, L 2.25, M 2.62, V 2.58
C9: I 2.25, E 3.33, P 2.7, T 2.84, W 2.04, Y 2.54, D 2.97, F 2.3, M 2.8, N 2.18, K 2.69, S 2.35, A 2.43, V 2.82, R 2.52, H 2.36, G 2.63, Q 3.34, L 2.05
